In PMC4682175 (2015) one finds Kd data, which are given here for 1 molecule.

In this assay the target is T1, Neogenin (Mus musculus, UniProt P97798).
T1 chain: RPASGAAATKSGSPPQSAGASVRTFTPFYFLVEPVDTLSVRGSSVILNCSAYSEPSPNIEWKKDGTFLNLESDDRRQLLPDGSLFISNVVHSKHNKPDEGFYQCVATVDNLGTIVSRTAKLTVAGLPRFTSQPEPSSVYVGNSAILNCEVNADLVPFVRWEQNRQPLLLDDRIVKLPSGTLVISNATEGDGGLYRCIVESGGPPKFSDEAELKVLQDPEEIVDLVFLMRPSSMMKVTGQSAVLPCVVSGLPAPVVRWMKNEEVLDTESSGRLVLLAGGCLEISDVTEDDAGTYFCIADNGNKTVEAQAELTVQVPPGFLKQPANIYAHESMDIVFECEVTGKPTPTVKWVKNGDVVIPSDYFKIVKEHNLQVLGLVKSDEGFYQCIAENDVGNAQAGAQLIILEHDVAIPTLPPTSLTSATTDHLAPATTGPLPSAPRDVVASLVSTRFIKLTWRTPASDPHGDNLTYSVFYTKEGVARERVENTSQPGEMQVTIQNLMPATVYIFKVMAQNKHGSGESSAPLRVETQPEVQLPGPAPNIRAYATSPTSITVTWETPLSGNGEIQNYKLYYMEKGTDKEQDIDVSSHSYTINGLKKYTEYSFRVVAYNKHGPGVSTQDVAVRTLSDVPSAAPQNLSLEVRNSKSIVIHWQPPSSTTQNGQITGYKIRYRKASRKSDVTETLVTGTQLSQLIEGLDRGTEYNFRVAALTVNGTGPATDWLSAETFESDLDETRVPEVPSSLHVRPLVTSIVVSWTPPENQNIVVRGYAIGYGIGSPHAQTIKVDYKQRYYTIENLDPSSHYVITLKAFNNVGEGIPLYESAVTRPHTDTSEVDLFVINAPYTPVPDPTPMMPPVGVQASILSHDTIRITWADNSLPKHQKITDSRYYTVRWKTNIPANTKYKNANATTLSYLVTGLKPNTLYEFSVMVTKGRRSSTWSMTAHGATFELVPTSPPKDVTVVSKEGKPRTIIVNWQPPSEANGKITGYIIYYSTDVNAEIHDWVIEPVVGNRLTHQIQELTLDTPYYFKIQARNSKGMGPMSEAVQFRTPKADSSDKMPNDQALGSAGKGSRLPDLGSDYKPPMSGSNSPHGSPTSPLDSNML
The assay can be described thus: saturation binding of draxin-AP to Neo1-transfected HEK293T cells, Scatchard analysis.

B1: Draxin (protein)
chain: GTLASGSSARNLPETHSHLPSSALWVSQASHHGRRGLGKKDRGPGRPSRAQEGAVVTATKQASQMTLGQPPAGLLQNKELLLGLTLPYPEKEARSPAWERVKKRGREHKRRRDRLRLHRGRAAIRGPSSLMKKVEPSEDRMLEGTMEESSTSLAPTMFFLTMTDGATPTTEESRILPVTSLRPQTQPRSDGEVMPTLDMALFDWTDYEDLKPEVWPSAKKKEKHWSHFTSDGNETSPAEGDPCDHHQDCLPGTCCDLREHLCTPHNRGLNNKCFDDCMCMEGLRCYAKFHRNRRVTRRKGRCVEPETANGDQGSFINI
modifications: draxin alkaline phosphatase fusion
For the molecule B1, the Kd worked out at 0.62 nM.

The term Kd denotes the concentration at which binding is half-saturated. Higher therefore signals weaker binding.
